Data on five molecules can be found in patent US20160333092A1 (ORDER MADE MEDICAL RESEARCH, published 2016).

In test [1] the target is T1, human SLC6A6 (solute carrier family 6 (neurotransmitter transporter, taurine), member 6) (human, UniProt P31641 1-620).
T1 construct: also called native SLC6A6; SLC6A6 on the cell membrane
T1 sequence: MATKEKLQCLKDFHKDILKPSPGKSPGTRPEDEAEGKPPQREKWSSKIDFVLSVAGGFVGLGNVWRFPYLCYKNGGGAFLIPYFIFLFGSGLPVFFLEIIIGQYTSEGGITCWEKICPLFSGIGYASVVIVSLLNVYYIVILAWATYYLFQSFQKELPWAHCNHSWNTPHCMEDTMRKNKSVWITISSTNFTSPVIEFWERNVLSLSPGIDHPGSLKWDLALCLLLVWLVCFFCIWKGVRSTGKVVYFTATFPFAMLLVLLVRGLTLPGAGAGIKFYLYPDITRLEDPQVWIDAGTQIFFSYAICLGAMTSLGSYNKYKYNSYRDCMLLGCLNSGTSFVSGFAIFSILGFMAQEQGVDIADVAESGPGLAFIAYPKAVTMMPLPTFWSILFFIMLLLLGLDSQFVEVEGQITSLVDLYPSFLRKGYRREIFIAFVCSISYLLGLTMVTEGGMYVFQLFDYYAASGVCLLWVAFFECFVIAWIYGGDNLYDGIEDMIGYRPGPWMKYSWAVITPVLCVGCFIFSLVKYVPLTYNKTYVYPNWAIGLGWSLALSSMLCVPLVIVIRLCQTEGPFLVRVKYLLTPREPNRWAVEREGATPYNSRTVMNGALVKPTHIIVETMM
Put plainly: immunocytological staining of formalin-fixed HT-29 and LoVo cells, antibody 10 ug/mL; compared with 4B9b and 5H12d. How it is done: (§1) Moreover, as controls for comparison purposes, the anti-SLC6A6 antibodies “4B9b” and “5H12d” disclosed in WO2012/029990 were also analyzed in the same manner. Hereinafter, antibodies produced by hybridoma cells are also represented by their respective clone numbers.
(§2) HT-29 and LoVo cells were cultured to reach 80% confluency and then seeded onto cover slips coated with Cellmatrix Type I-A (Nitta Gelatin Inc., Japan). After culture for 2 days, the cells were fixed with 10% neutral buffered formalin (WAKO). After being treated with 0.3% (v/v) aqueous hydrogen peroxide for 20 minutes, the cover slips were washed three times with TBST and treated with TBST containing 5% (w/v) skimmed milk, followed by addition of the antibodies purified in (7) above at a concentration of 10 μg/mL and reaction at 4° C. for 16 hours. […] After washing three times with TBST, the cover slips were sealed with Mounting Medium (Vector Shield).

Test [2] deals with T2, partial protein of the extracellular region of SLC6A6 (amino acid residues 143 to 216, E. coli recombinant) (human, UniProt P31641 143-216).
T2 construct: also called SLC6A6 partial protein; recombinant protein
T2 sequence: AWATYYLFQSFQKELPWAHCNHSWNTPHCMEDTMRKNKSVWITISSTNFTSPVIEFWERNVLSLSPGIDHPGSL
Put plainly: ELISA on coated recombinant SLC6A6 partial protein (residues 143-216), HRP-labelled secondary antibody. The protocol: The recombinant protein obtained in (4) above (10 μg/ml) was dispensed in 100 μL volumes into MaxiSorp 96-well plates (Nunc) and adsorbed onto the plates at room temperature for 1 hour. After adsorption, each well was washed with TBS-T (TBS-T (25 mM Tris, 150 mM NaCl, 0.05% (v/v) Tween 20, pH 7.4) and charged with skimmed milk (GIBCO), which had been diluted to 5% with TBS-T, to conduct blocking for 30 minutes at room temperature. After each well was washed three times with 200 μL of TBS-T, mouse plasma samples collected from the tail vein were each diluted 1/2000-fold with TBS-T and added to the ELISA plates in a volume of 100 μL per well, followed by reaction at room temperature for 1 hour. Each well was washed three times with 200 μL of TBS-T.
The thus obtained monoclonal antibody-producing hybridoma cells were cultured in ten 10 cm dishes to reach 90% confluency and then cultured for 10 days in a 1:1 mixture of HT medium (Invitrogen) and EX CELL Sp2/0 (Nichirei Bioscience Inc., Japan). The culture supernatants were collected and purified with a Protein G column. The Protein G column (GE Healthcare) was used in a volume of 0.5 mL relative to 100 mL of the culture supernatant. The cultured solutions were each passed at a flow rate of 1 to 3 ml/min through the Protein G column which had been equilibrated with PBS(−), followed by washing with 6 mL of washing buffer (25 mM Tris-HCl (pH 7.4), 140 mM NaCl, 10 mM KCl). Then, antibody proteins were eluted with 1 mL of elution buffer (0.1 M glycine-HCl (pH 2.5) or 0.1 M glycine-HCl (pH 3.0)) and neutralized with 0.5 M Tris-HCl (pH 7.4) to be within pH 7.0 to 7.4. The antibodies were concentrated with Amicon Ultra 30 (Millipore) and the buffer was replaced with PBS(−).
In general terms: An ELISA detects its analyte on a solid surface through an enzyme-linked reagent.

The target in test [3] is T1, human SLC6A6 (solute carrier family 6 …). Kind of test: immunocytological staining of formalin-fixed HT-29 and LoVo cells, antibody 10 ug/mL. The protocol:
as §1, §2

Test [4] shares this target. Kind of test: binding activity on HCT15 and HT-29 cells, antibody 10 ug/mL, anti-human IgG-HRP secondary antibody. The protocol: In this case, the antibody concentration was set to 10 μg/mL.

B1: monoclonal antibody produced from mouse-mouse hybridoma 205 (antibody, V domains shown)
VH: VKLQQSGPELVKPGASVKMSCKASGYTFTSYVMHWVKQKPGQGLEWIGYINPYNDGTKYNEKFKGKATLTSDKSSSTAYMELSSLTSEDSAVYYCARRKAWFAYWGQGTLVTVSA
VL: DIQMTQSPASQSASLGESVTITCLASQTIGTWLAWYQQKPGKSPQLLIYAATSLADGVPSRFSGSGSGTKFSFKISSLQAEDFVSYYCQQLYSTPLTFGGGTKLEIK
B1: the binding result in test [1] and in test [2] was “binds” each time.

B2: monoclonal antibody produced from mouse-mouse hybridoma 422 (antibody, V domains shown)
VH: VQLQQSGPEVVKPGPSLRMSCKASGYFFTGNSMNWVKKTHGRSLEWIGLIDLSNGETRFNQKFKGKATLTVDKSSGTAYMELLNLTSEDSAVYYCASRSAMIMPCFSHWGQGTLVTVSA
VL: DIVMTQSHNFMSTSIGDRVNITCKASQDVATAVAWFQQKPGQSPKLLIYWTSTRHTGVPDRFTGSGYGTDFTLTISHVQSEDLADYFCQQYDTYPYTFGGGTKLEIK
notes: also called 422 antibody; antibody clone 422
Turning to B2, the binding result in test [2] and in test [3] was “binds” throughout.

B3: monoclonal antibody produced from mouse-mouse hybridoma 303 (antibody, V domains shown)
VH: VQLQQPGAEFVKPGTSVKLSCKASGYNFTRYWINWVKLRPGQGLEWIGNIYPATNGINYNEKFKSKATLTVDTFSSTAYMQLSSLASEDSGLYYCARCKTMLSRCAWFPYWGQGTLVTVSA
VL: DIQMTQTTSSLSASLGDRVTINCRASQDISNYLNWYQQKPDGTVKLLIYDTSRLHSRVPSRFSGSGSGTDYSLTISNLEQEDIATYFCQQGNMLPWTFGGGTKLEIK
In the case of B3, the binding result in test [1] and in test [2] was “binds” throughout.

B4: monoclonal antibody produced from mouse-mouse hybridoma 419 (antibody, V domains shown)
VH: IQLQQSGPELVKPGASVKVSCKAFGYAFTRHNMYWVKQRHGKCLEWIGYIDPFNGGTSYNQKFKGKATLTVDKSSSTAYMHLNSLTSEDSAVYYCARVYGNYAWFAYWGQGTLVTVSA
VL: DIVMTQSHKFMSTSVGDRVSITCKASQDVSTAVAWYQQIPGQSPKLLIYSSSYRYTGVPDRFTGSGSGTDFTFTISSVQAEDLAVYYCQQHYNTPWTFGGGTKLEIK
Regarding B4, the binding result in test [1] and in test [2] was “binds” throughout.

B5: human-mouse chimeric 205 antibody (antibody, human IgG1, kappa, V domains shown)
VH: QVKLQQSGPELVKPGASVKMSCKASGYTFTSYVMHWVKQKPGQGLEWIGYINPYNDGTKYNEKFKGKATLTSDKSSSTAYMELSSLTSEDSAVYYCARRKAWFAYWGQGTLVTVSA
VL: DIQMTQSPASQSASLGESVTITCLASQTIGTWLAWYQQKPGKSPQLLIYAATSLADGVPSRFSGSGSGTKFSFKISSLQAEDFVSYYCQQLYSTPLTFGGGTKLEIKR
notes: Human IgG1 / human kappa constant regions
In the case of B5, in test [4], the binding result is “binds”.
